# Experiment: soluble on expression in E. coli; label from the status in PepcDB or PDB records
row,Sequence,soluble on expression in E. coli
1,MGSDKIHHHHHHKENNDFSSMQMKGVEQVSVKVDLDPAVERLSKAVQFRTISNQDRNDFDEKAFTDYHQFLEKAYPNVHKTLKREVLGSPRPFSLLYTWKGKDPSLPPALFYAHQDVVPVPSESRDQWAVDPFAGAVQDGYIWGRGVLDDKNQIHGILEAAEMKIKEGWQPSRTLYFVFGQDEEVGGPEGAKYIADVLEQRGIKRFAFVIDESAPLTPGIFPGIPDNTALIGIAQKGFVSLELAMNGIGGHSSQPPEESNIGILAKAITKLEAAQFPYRIHEAVRHQYRYMGPELSEDKQPMYAAVAFGKDGEITPLEQKFIDEMASQQVTRAMLHTTIAVTMFNAGIKDNVLPPSATAVVNFRPMPGDTPEVIIAHVKKAIGDDRITVRDISASTPATNVADPSSKSYQQLEKTIRQIYGNDLIVSPFFVIGGSDSKHFQARKFAPDVYTITGLQLESVKEFAGFHGVNERIRVDEYGRTIGFFYKLMDNLEEL,not soluble
2,SAGPQQQPPYLHLAELTASQFLEIWKHFDADGNGYIEGKELENFFQELEKARKGSGMMSKSDNFGEKMKEFMQKYDKNSDGKIEMAELAQILPTEENFLLCFRQHVGSSTEFMEAWRKYDTDRSGYIEANELKGFLSDLLKKANRPYDEPKLQEYTQTILRMFDLNGDGKLGLSEMSRLLPVQENFLLKFQGMKLTSEEFNAIFTFYDKDRSGYIDEHELDALLKDLYEKNKKEMNIQQLTNYRKSVMSLAEAGKLYRKDLEIVLCSEPPM,soluble
3,MTVTYIGHSGFLLETEDAYFLFDYFEGTIPELKNNKSIIVFSSHRHHDHFNPEIFELIKIYPDIRYVLSYDIPLKRHLKKYENQGIDLAKNILITKKNIETMLKLPNGKDLKISTFRSTDEGVAFLLEYDNKVYYHAGDLNCWYWKEEPKSYRNNMIQLYIREIQKMDNLKIDVAFVPLDPRLEETAYEGLEIFMEHTNPQIVFPMHCWGKYDIISSFLNKHPEYKEKIRMINNEGQIFNV,not soluble
4,MGSSHHHHHHSSGLVPRGSHMEAIGVLMMCPMSTYLEQELDKRFKLFRYWTQPAQRDFLALQAESIRAVVGNSNAGADAELIDALPKLEIVSSFSVGLDKVDLIKCEEKGVRVTNTPDVLTDDVADLAIGLILAVLRRICECDKYVRRGAWKFGDFKLTTKFSGKRVGIIGLGRIGLAVAERAEAFDCPISYFSRSKKPNTNYTYYGSVVELASNSDILVVACPLTPETTHIINREVIDALGPKGVLINIGRGPHVDEPELVSALVEGRLGGAGLDVFEREPEVPEKLFGLENVVLLPHVGSGTVETRKVMADLVVGNLEAHFSGKPLLTPVV,soluble
5,MKRGKGEKKATKSRDGSGQVVPLTEPVVTATGMVGTRSWIGGLFTRSNRRQDKAVDYTLSPLQEERLQRLQDRMVVPFDETRPDHQESLKALWNVAFPNVHLTGLVTEQWKEMGWQGPNPSTDFRGCGFIALENLLFSARTYPVNYSLLLKQRGDRAKWEYPFAVAGINISFMLIQMLDLQNNQDERAFDVLYCIAFAMMDAQWLAMHASYMEFNEVLQATRNQLERELSLDDIHRIQDLPAYNLLFQ,soluble
6,MFMKYALFPGCKIAFERPDLELAMREVLTALDVPFEYLSDFSCCPTWASVPSFDIEAWLAISARNISLAEEKGLDIVVGCGDCYSVLNHARDMLKREEWRERVNRILAKVGRVYRGTTKIYHIIHLLEERKIKKNLKHRLNGFVAGVQPGCHLLWPAKIFDAKEENPFFPERLKKLVEAMGAETPHYSRLEYCCGNHIDIVDYEKFLDFVQLKLQSLKEEIDPDFIVTACSTCFIQLDEGQKRLKRLGRIDYEIPVFHFPQLLAICLGSNPEKVARISSVDRSKIISEILEGRE,not soluble
7,MGSDKIHHHHHHIYCSGKLLQTVMAVQLYPDSKTFVDQPMKENQTGKSIMEHFEKRFPVSIEKITKKDVAEFVDEFFDKEGNELDVCDLPDWRPITEQLANIKDASYQAFAQRLHFIWIQLCRQIKPEVKNDPSRFSLIYVPYQFILPGGRFREFYYWDAYWILKGLIASELYSTARMMILNFAHIIETYGFVPNGGRVYYLRRSQPPFFAPMVYEYYLATQDIQLVADLIPVIEKEYTFWSERRTVNVTYEHPDLNETLHMFQYRTEAETPRPESFREDVLSAEHFTTKDRKKQFFKDLGSAAESGWDFSSRWFKNHKDISTIETTNIVPVDLNAFLCYNMNIMQLFYKLTGNPLKHLEWSSRFTNFREAFTKVFYVPARKGWYDYNLRTLTHNTDFFASNAVPLFSQCYDPLNSQIAVDVYNEMQNSGAFSIPGGIPTSMNEETNQQWDFPNGWSPMNHMIIEGLRKSNNPILQQKAFTLAEKWLETNMQTFNVSDEMWEKYNVKEPLGKLATGGEYEVQAGFGWTNGAALDLIFTYSDRLQYNGPILESLVGSQTTSMKSSPDSSTSLPIDITTTITTSSSSSTFGYSNILTLITVFVLYIL,not soluble
8,MGSDKIHHHHHHMYPAKHYQTNEENITHYHEIIESNPLATLLFSHESEIDVSHIPCHFSLKTSNTNTQQLERSTLTAHVSNHHPLAKVLQRSSTVALQLVFHGEDAYISPRDVSKQHSHAQSVPTWNYAKVHVSGIAHEVKDSDDKYQYMAASTAYFEQRRSTNNIDKPWSIEEAPAIAIKKMLNAITIFSINITHLEGRFKLSQNKSKAVQKEIAEQLTTRGVEELGQLMLAL,not soluble
9,MSDRNCYKCQQPGHISRNCPNGESDGGRRGGGGGSTCYNCQETGHFSRDCPKGGSGGGQRGGGGGGGSCYNCGGRGHYSRDCPSARSEGGSGGYGGRGGEGRSFGGQKCYNCGRSGHISRECTESGSAEEKRCYQCQETGHISRDCPSQTN,soluble
10,GFGPHQRLEKLDSLLSDYDILSLSNIQQHSVRKRDLQTSTHVETLLTFSALKRHFKLYLTSSTERFSQNFKVVVVDGKNESEYTVKWQDFFTGHVVGEPDSRVLAHIRDDDVIIRINTDGAEYNIEPLWRFVNDTKDKRMLVYKSEDIKNVSRLQSPKVCGYLKVDNEELLPKGLVDREPPEGKT,not soluble
11,MQYHEPVWIPAHLTTGEPDSFAAFTLEERLPAILDNLANHADARTDQALQQLAVEIREGEITPLPPVILGLFDQVIKPYTGRRWTDMPFLTVELYFYARILLAFGHTATTLVDPFHPIKNTVSLQAIESLTTMTGYCDSDCDITGLLRWSMTGNTADLSQQVVTDAGQISLLVDESYVAGGLFDSGLNRIDFVFDNAGMDVLTDLLLILRISRHCSRIVAHVRPWPMFVSDVTMTDMKYLIRKLVTSSIPAAKKLGEDITQLLHQNRLIFRSSSALGLPVCFCEEEALTRETFENTELVIFKGDLNYRYFVGDRRWPHTMEKRYFFERFSQPAICLRTLKSEVLVGLPADIATRTLHLQPDWLTSGRYGIIQVFAHMAGDPNSLEHHHHHH,not soluble
12,MTDDNDNKNTELPMSASEVTAGTKIVRRAANQKPSRVVADICVVGSGAAGMSAAIEGARAGRKVVLVDSLPALGGQAVNSIIGTFCGLFSNGSDGYQFTHGIADDLLGDLGAQENALFYRRGPHTTVVYYDEVALGRWVEKAMLAAGVTVIVGAVMRNVRVAGRRVTGIDLSTRYGDVEVEANGFVDASGDAALVWQAGFACREPDDGPIYGTQMLIVENIDESKVPSREELPARMREKAGDYGLLRREGLSFVIPGRGVAAMNMTHVETPLEPLEASRKGIEGKDQADRAFAFLRNEFPACFGKARIRAYGLPGIRQTRWIVGRQQLSVDDVRAGTKFEDAIGRTAWPIELHDHGSGHHWHIFDKDHVHYVPFGSLTPQEAENIVAAGRCIDADKAALSSVRVMGPCMAMGAAAAHALDLAGSGSVHQIDIDALKWRVRDNLERTDLEHHHHHH,not soluble
13,MSYGLIIVLMIILGIGLWHTKKYHRAVVNQVAHVWITKNAFEHTALGMAIVSPDCRFLKVNRAYGEITGYTRPELLKMAVKELTHPEDQEKDTPYLQEVFAGNIHSFTTVKRYIHKNGSTIWVRSTISAVRTERGNLEHHHHHH,soluble
14,MTENVEYIRVLLKSSQAEVQMLREQNEFRDDLLKMFKVKLEVNALNNLPVRRNLSVEISNLETKKLKTEIAFLKEELGREGKKLTIANTVHEQLKKDLEAEKRNSMFLSELLTFYQNGHQPQLPAEDQFVDFLQTETRSVKEALKEKEEEVKRLLVDMEGKTFQNLTEKGRMEEEMNDAKREAQILRNEMKSLQKNMTAKENELLGYLRDASETHTEMQKDYKIQILELQRRNRILERHLDNIQ,not soluble
15,MATPSTGANNSIPAVRNQVEVQVGLVGDAQVGKTSLMVKYVQNIYDKEYTQTLGVNFLKRKVSIRSTDIIFSIMDLGGQREFINMLPIATVGSSVIIFLFDLTRPETLSSIKEWYRQAYGLNDSAIPILVGTKYDLLIDLDPEYQEQISRTSMKYAQVMNAPLIFCSTAKSINIQKIFKIALAKIFNLTLTIPEINEIGDPLLIYKHLGGQQHRHHNKSQDRKSHNIRKPSSSPSSKAPSPGVNT,soluble
16,MGSDKIHHHHHHAQIKFRNHSVSVVSLNYDASNKTMLFRQGEEMMEMTNPAQVDTVIIGKRKFVPVGRGFYEVVCRKEGVVYIDWLLKDVNIGSKGALGTVTQGSVKNLQMSDLGLNGTEMYTPYERQKIGSTEVYRRKNDNTYYIKVEGKLEKVKSLKHLEKIFIGHKDEIRKFAKDHKIDMKDILDVFSILDYCMELEQ,not soluble
17,MSLTFYWYPKCGTCRKAKKWLEEHGKEINEIHIAEQPPSKEELKALYEKSGLDLKKFFNTSGMKYRELNLKEKLYHMSEDEQLELLASDGMLIKRPLTTDGEKVTVGFKEDQFEENWA,not soluble
18,MGSDKIHHHHHHASGGVEKINHIVVIYLENRSFDNMFGRFPGADGLEAAKGAPVQVDREGKPYTVLPPILDEKTKQPDPRFPAQIANAPFDIGPHVGQSEKHRDLVHRFYQNMEQINGGRNDKFAAWSDAGGLVMGTYDTSNTRLWALAREFTLADNFFQAAFGGSFLNHFWLICACTPQYEAAPASIRAQLDGDGHLVKDGAVTPDGYPVNTIFSFYPPYPPSATDLAKRLPPQTAPNIGDRLSGKNVSWAWYSGGYAAALEGRNQGNFQYHHQPFVYFASTGEGTKAKARHLKDEAPLFESVAAGRLESVVFYKPVGDENQHPGYADLASGDAKAARLVDAIRASALWKDTAIIITYDENGGFWDHVAPPKGDRWGPGTRIPALIISPYAKRGFVDHTVYDTTSILKLIETRFGLPPLGRRDAVANDLTAAFDFTSERR,not soluble
19,MSLGIATFAVVDLETTGNQLDYDEIIQIGITFVRQNQVIDTYHSMIRTDLEIPPFIQALTSIEEEMLVQAPYFNEVADDIYQLIKDCVFVAHNISFDLNFIKKAFEKCNIQFKPKRVMDTLELFKIAFPTDKSYQLSALAESHHIPLNNAHRADEDATTTAKLMIKAFEKFEQLHEGHHHHHH,soluble
20,MFRVTCIDLENGEFALYINGHYLSSEDGSGEKLYLGDILERLSRLPGVTTETVERPVPDSDEWSWNDVADSVFPACITLSRNMTVAAFKQRLSRFPDDALCCGTFWLASDFLALDSSLTEDDIDAAMELAQHCHDANDGFNWSHLQWAIDEVKRGG,not soluble
21,MQGLTMDDISLSIARNMFHLQVYESDGVRFEDLFSKIMYYKSPDFQQVKPYGNIGDRKNDGFIKGQGVYYQVYAPEDASNNVLAAVNKIKDDFEGLRDYWHDICPIKKYYFVLNDKYKGSLPQLHKELIVLQSDFNLIDTGVIVAKDLERELFNLPDDMIRSVVGHLPDIDHEEYMFVSGFTCFISAWINFEKIARHKVFSAKQPNRPLFIGKVVNALVKNKIISRQDATFIKKITEVRNSLVHGVSMLVPKKNEIDMLIFITEKIKPAGVCRLD,not soluble

# Source: the DeepSol protein solubility set
